Test results taken from IntAct's records for PubMed 21444796.

B1: Natural cytotoxicity triggering receptor 3 (Homo sapiens), O14931 (parent)
chain: MAWMLLLILIMVHPGSCALWVSQPPEIRTLEGSSAFLPCSFNASQGRLAIGSVTWFRDEVVPGKEVRNGTPEFRGRLAPLASSRFLHDHQAELHIRDVRGHDASIYVCRVEVLGLGVGTGNGTRLVVEKEHPQLGAGTVLLLRAGFYAVSFLSVAVGSTVYYQGKCLTWKGPRRQLPAVVPAPLPPPCGSSAHLLPPVPGG
partner: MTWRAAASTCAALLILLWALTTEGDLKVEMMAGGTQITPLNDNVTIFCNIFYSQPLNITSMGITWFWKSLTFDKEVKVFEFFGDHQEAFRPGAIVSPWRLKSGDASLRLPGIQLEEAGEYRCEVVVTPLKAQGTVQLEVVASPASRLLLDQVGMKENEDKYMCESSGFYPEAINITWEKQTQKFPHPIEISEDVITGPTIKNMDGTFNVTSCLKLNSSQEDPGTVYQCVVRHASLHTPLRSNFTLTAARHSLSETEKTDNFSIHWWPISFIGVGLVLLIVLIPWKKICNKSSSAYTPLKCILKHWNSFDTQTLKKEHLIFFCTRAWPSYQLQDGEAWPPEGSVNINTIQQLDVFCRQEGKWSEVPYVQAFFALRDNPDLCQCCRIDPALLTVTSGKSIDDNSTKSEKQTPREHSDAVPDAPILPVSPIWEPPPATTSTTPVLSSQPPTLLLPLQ

Variants of: B1
Details: with nr3l1_human NCR3LG1, Q68D85

Variant | effect of a mutation on the interaction
R109S;E111S;L113A | decreasing interaction strength
I50A;S52A | decreasing interaction strength
R109E;E111R;L113A | decreasing interaction strength
E65S;R67S | decreasing interaction strength
